These results are taken from the supplement of paper PMC10567573.

The labels stand for the following.
B1: HNF4A (parent)
chain: RFSRQCVVDKDKRNQCRYCRLKKC
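Note: lentivirally expressed fusions sorted by FACS into six bins by GFP to DsRed ratio, PSI derived from sequencing read proportions per bin multiplied by bin number.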

Variants of B1 are the subject of the data set. Kind of data set: protein stability index of a GFP-peptide fusion (GPS, HEK-293T) (PSI 1-6); higher = more stable. The settings on record: c terminus: a fixed tail appended.
Consider RFSRQCVVDKDKRNQCRYCDLKKC [R20D], for which the protein stability index worked out at 3.

For the variant RFSRQCVVDKDKRNQCRYCTLKKC [R20T], the protein stability index stood at 2.74.

With RFSRQCVVDKDKRNQCRYCHLKKC [R20H], the protein stability index amounted to 1.58.

For the variant RFSRQCVVDKDKRNQCRYCFLKKC [R20F], the protein stability index was 2.12.

On to RFSRQCVVDKDKRNQCRYCQLKKC [R20Q], for which the protein stability index is 2.98.

For the variant RFSRQCVVDKDKRNQCRYCMLKKC [R20M], the protein stability index came out at 2.96.

With RFSRQCVVDKDKRNQCRYCALKKC [R20A], the protein stability index came to 2.96.

For RFSRQCVVDKDKRNQCRYCSLKKC [R20S], the protein stability index worked out at 2.72.

On to RFSRQCVVDKDKRNQCRYCYLKKC [R20Y], for which the protein stability index was determined as 2.28.

As for RFSRQCVVDKDKRNQCRYCILKKC [R20I], the protein stability index turned out to be 2.42.

Take RFSRQCVVDKDKRNQCRYCGLKKC [R20G]: the protein stability index worked out at 3.23.

Turning to RFSRQCVVDKDKRNQCRYCCLKKC [R20C], the protein stability index stood at 2.24.

For the variant RFSRQCVVDKDKRNQCRYCVLKKC [R20V], the protein stability index worked out at 2.56.

In the case of RFSRQCVVDKDKRNQCRYCPLKKC [R20P], the protein stability index was found to be 3.15.

In the case of RFSRQCVVDKDKRNQCRYCELKKC [R20E], the protein stability index amounted to 2.84.

In the case of RFSRQCVVDKDKRNQCRYCKLKKC [R20K], the protein stability index was 2.58.

For the variant RFSRQCVVDKDKRNQCRYCNLKKC [R20N], the protein stability index came out at 2.62.

As for RFSRQCVVDKDKRNQCRYCWLKKC [R20W], the protein stability index was found to be 1.43.

As to RFSRQCVVDKDKRNQCRYCLLKKC [R20L], the protein stability index came to 2.35.

As for RFSRQCVVDKDKRNQCRYCRLTKC [K22T], the protein stability index came out at 2.13.

For the variant RFSRQCVVDKDKRNQCRYCRLMKC [K22M], the protein stability index stood at 1.56.

Turning to RFSRQCVVDKDKRNQCRYCRLQKC [K22Q], the protein stability index is 1.79.

As to RFSRQCVVDKDKRNQCRYCRLVKC [K22V], the protein stability index is 1.83.

As for RFSRQCVVDKDKRNQCRYCRLEKC [K22E], the protein stability index was found to be 1.54.

RFSRQCVVDKDKRNQCRYCRLDKC [K22D]: the protein stability index was 2.13.

Regarding RFSRQCVVDKDKRNQCRYCRLPKC [K22P], the protein stability index was 2.12.

As for RFSRQCVVDKDKRNQCRYCRLIKC [K22I], the protein stability index turned out to be 1.73.

For RFSRQCVVDKDKRNQCRYCRLLKC [K22L], the protein stability index came out at 2.57.

For RFSRQCVVDKDKRNQCRYCRLAKC [K22A], the protein stability index is 2.08.

As for RFSRQCVVDKDKRNQCRYCRLGKC [K22G], the protein stability index turned out to be 2.27.

Regarding RFSRQCVVDKDKRNQCRYCRLHKC [K22H], the protein stability index is 1.71.

In the case of RFSRQCVVDKDKRNQCRYCRLYKC [K22Y], the protein stability index was determined as 1.98.

With RFSRQCVVDKDKRNQCRYCRLCKC [K22C], the protein stability index worked out at 2.66.

As to RFSRQCVVDKDKRNQCRYCRLFKC [K22F], the protein stability index is 1.8.

Consider RFSRQCVVDKDKRNQCRYCRLRKC [K22R], for which the protein stability index turned out to be 2.9.

As to RFSRQCVVDKDKRNQCRYCRLSKC [K22S], the protein stability index was determined as 2.73.

For the variant RFSRQCVVDKDKRNQCRYCRLKYC [K23Y], the protein stability index came out at 2.24.

As to RFSRQCVVDKDKRNQCRYCRLKEC [K23E], the protein stability index stood at 2.04.

As for RFSRQCVVDKDKRNQCRYCRLKMC [K23M], the protein stability index came to 3.12.

As to RFSRQCVVDKDKRNQCRYCRLKHC [K23H], the protein stability index is 2.4.

For RFSRQCVVDKDKRNQCRYCRLKWC [K23W], the protein stability index is 2.05.

For RFSRQCVVDKDKRNQCRYCRLKLC [K23L], the protein stability index was found to be 1.34.

With RFSRQCVVDKDKRNQCRYCRLKGC [K23G], the protein stability index came out at 2.15.

With RFSRQCVVDKDKRNQCRYCRLKPC [K23P], the protein stability index was 1.74.

Take RFSRQCVVDKDKRNQCRYCRLKQC [K23Q]: the protein stability index amounted to 2.74.

Take RFSRQCVVDKDKRNQCRYCRLKDC [K23D]: the protein stability index is 1.65.

With RFSRQCVVDKDKRNQCRYCRLKFC [K23F], the protein stability index is 2.67.

Regarding RFSRQCVVDKDKRNQCRYCRLKAC [K23A], the protein stability index was 1.89.

For the variant RFSRQCVVDKDKRNQCRYCRLKNC [K23N], the protein stability index was found to be 1.77.

Consider RFSRQCVVDKDKRNQCRYCRLKCC [K23C], for which the protein stability index amounted to 2.54.

Regarding RFSRQCVVDKDKRNQCRYCRLKSC [K23S], the protein stability index turned out to be 1.41.

For the variant RFSRQCVVDKDKRNQCRYCRLKVC [K23V], the protein stability index was determined as 2.04.

Take RFSRQCVVDKDKRNQCRYCRLKIC [K23I]: the protein stability index came out at 1.68.

RFSRQCVVDKDKRNQCRYCRLKTC [K23T]: the protein stability index was determined as 2.37.

Regarding RFSRQCVVDKDKRNQCRYCRKKKC [L21K], the protein stability index stood at 4.07.

As to RFSRQCVVDKDKRNQCRYCRRKKC [L21R], the protein stability index is 4.08.

With RFSRQCVVDKDKRNQCRYCRDKKC [L21D], the protein stability index stood at 3.35.

Turning to RFSRQCVVDKDKRNQCRYCRPKKC [L21P], the protein stability index worked out at 2.94.

Turning to RFSRQCVVDKDKRNQCRYCRMKKC [L21M], the protein stability index was determined as 3.61.

As to RFSRQCVVDKDKRNQCRYCRSKKC [L21S], the protein stability index was 3.36.

With RFSRQCVVDKDKRNQCRYCRQKKC [L21Q], the protein stability index is 3.64.

As for RFSRQCVVDKDKRNQCRYCRGKKC [L21G], the protein stability index stood at 2.94.

Regarding RFSRQCVVDKDKRNQCRYCRWKKC [L21W], the protein stability index came to 2.94.

In the case of RFSRQCVVDKDKRNQCRYCRYKKC [L21Y], the protein stability index is 3.01.

As for RFSRQCVVDKDKRNQCRYCRVKKC [L21V], the protein stability index amounted to 2.31.

Take RFSRQCVVDKDKRNQCRYCRTKKC [L21T]: the protein stability index worked out at 2.93.

Take RFSRQCVVDKDKRNQCRYCRCKKC [L21C]: the protein stability index is 3.73.

In the case of RFSRQCVVDKDKRNQCRYCRFKKC [L21F], the protein stability index was 2.86.

Turning to RFSRQCVVDKDKRNQCRYCRAKKC [L21A], the protein stability index is 3.51.

In the case of RFSRQCVVDKDKRNQCRYCRHKKC [L21H], the protein stability index was determined as 3.41.

In the case of RFSRQCVVDKDKRNQCRYCREKKC [L21E], the protein stability index was determined as 3.08.

RFSRQCVVDKDKRNQCRYCRNKKC [L21N]: the protein stability index was 3.33.

With RFSRQCVVDKDKRNQCRYCRIKKC [L21I], the protein stability index was 3.22.

In the case of RFSRQCVVDKDKRNQCRYCRLKKN [C24N], the protein stability index is 2.89.

RFSRQCVVDKDKRNQCRYCRLKKL [C24L]: the protein stability index stood at 2.39.

As for RFSRQCVVDKDKRNQCRYCRLKKA [C24A], the protein stability index was determined as 3.01.

With RFSRQCVVDKDKRNQCRYCRLKKQ [C24Q], the protein stability index amounted to 2.5.

For RFSRQCVVDKDKRNQCRYCRLKKS [C24S], the protein stability index was found to be 2.5.

RFSRQCVVDKDKRNQCRYCRLKKW [C24W]: the protein stability index is 1.81.

Take RFSRQCVVDKDKRNQCRYCRLKKV [C24V]: the protein stability index stood at 2.34.

As for RFSRQCVVDKDKRNQCRYCRLKKG [C24G], the protein stability index is 2.41.

In the case of RFSRQCVVDKDKRNQCRYCRLKKF [C24F], the protein stability index was 2.55.

For RFSRQCVVDKDKRNQCRYCRLKKM [C24M], the protein stability index is 3.33.

For RFSRQCVVDKDKRNQCRYCRLKKY [C24Y], the protein stability index was determined as 2.77.

RFSRQCVVDKDKRNQCRYCRLKKT [C24T]: the protein stability index was found to be 3.08.

For the variant RFSRQCVVDKDKRNQCRYCRLKKE [C24E], the protein stability index was 1.01.

RFSRQCVVDKDKRNQCRYCRLKKI [C24I]: the protein stability index turned out to be 2.93.

As for RFSRQCVVDKDKRNQCRYCRLKKK [C24K], the protein stability index is 2.62.

With RFSRQCVVDKDKRNQCRYCRLKKH [C24H], the protein stability index came to 2.77.

Consider RFSRQCVVDKDKRNQCRYCRLKKR [C24R], for which the protein stability index was 2.42.

As for RFSRQCVVDKDKRNQCRYSRLKKC [C19S], the protein stability index was found to be 3.65.

Turning to RFSRQCVVDKDKRNQCRYPRLKKC [C19P], the protein stability index was found to be 3.13.

On to RFSRQCVVDKDKRNQCRYRRLKKC [C19R], for which the protein stability index was 3.37.

RFSRQCVVDKDKRNQCRYQRLKKC [C19Q]: the protein stability index came to 3.73.
